Measurements: patent US20230000771A1 (WISCONSIN ALUMNI RESEARCH FOUNDATION, published 2023)
Where no end group is shown, it is not given here.

Columns and labels:
PD-L1 (SPR target) [1] = target: T1, PD-L1 (SPR target) (UniProt Q9NZQ7 19-238, limits assumed); assay: SPR; drawn table under the sensorgrams, column KD
T1 construct: also called PD-L1/CD274

PD-L1 (SPR target) [2] = target: T1, PD-L1 (SPR target); assay: SPR; drawn table under the sensorgrams, column Kd
PD-L1 (SPR target) [3] = target: T1, PD-L1 (SPR target); assay: SPR; drawn table under the sensorgrams, column Ka
PD-L1 (SPR target) [4] = target: T1, PD-L1 (SPR target); assay: SPR

T1 sequence (Q9NZQ7 19-238 limits assumed): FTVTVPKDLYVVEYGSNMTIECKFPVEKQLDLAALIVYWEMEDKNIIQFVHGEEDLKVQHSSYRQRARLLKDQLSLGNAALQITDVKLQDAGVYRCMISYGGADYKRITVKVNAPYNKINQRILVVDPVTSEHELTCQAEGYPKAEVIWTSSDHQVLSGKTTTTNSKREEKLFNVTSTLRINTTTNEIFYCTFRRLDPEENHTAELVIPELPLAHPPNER

Kd (PD-L1 (SPR target) [1]) [nM] | koff (PD-L1 (SPR target) [2]) [s⁻¹] | kon (PD-L1 (SPR target) [3]) [M⁻¹ s⁻¹] | strength of KD relative to free peptide (pPD1) (PD-L1 (SPR target) [4]) [fold] | Binder
119000 | 0.127 | – | – | HVVWHRESPSGQTDTLAA (not fully specified (C-terminus), also called free pPD-1) [PD-L1-binding peptide (pPD-1), free peptide]
2.09 | 0.00122 | 583000 | – | aPD-L1 (full anti-PD-L1 antibody) (antibody, V domains shown) VH: EVQLLESGGGLVQPGGSLSLSCAASGFSFSSGYDMCWVRQAPGKGLEWIACIAAGSAGITYDANWAKGRFTISRDNSKNTLYLQMNSLRAEDTAVYYCARSAFSFDYAMDLWGQGTLVTVSS VL: DIQMTQSPSTLSASVGDRVTITCQASQSISSHLNWYQQKPGKAPKLLIYKASTLASGVPSRFSGSGSGTEFTLTISSLQPDDFATYYCQQGYSWGNVDNVFGGGTKVTVL
2.75 | 0.000693 | 252000 | ~100000 | HVVWHRESPSGQTDTLAA (other, not fully specified (C-terminus); also: conjugated to G7 PAMAM dendrimer, attachment site and number per dendrimer not given here, Multivalent conjugate; Only the peptide part is a polypeptide; also called dendrimer-pPD-1; dendrimer-peptide conjugates) [dendrimer-peptide conjugate G7-pPD1 (pPD-1 peptides conjugated to PAMAM dendrimer)]
